Results taken from patent US20220251193A1 (RAMOT AT TEL AVIV UNIVERSITY, published 2022).
Each block holds one binder with its values, some of them ahead of it.

Target: T1, Sema3A(65) (human (by the filing's definition of …, UniProt Q14563 21-555, limits assumed))
T1 construct: also called recombinant pure Sema3a protein; 65 kDa furin cleavage
T1 sequence: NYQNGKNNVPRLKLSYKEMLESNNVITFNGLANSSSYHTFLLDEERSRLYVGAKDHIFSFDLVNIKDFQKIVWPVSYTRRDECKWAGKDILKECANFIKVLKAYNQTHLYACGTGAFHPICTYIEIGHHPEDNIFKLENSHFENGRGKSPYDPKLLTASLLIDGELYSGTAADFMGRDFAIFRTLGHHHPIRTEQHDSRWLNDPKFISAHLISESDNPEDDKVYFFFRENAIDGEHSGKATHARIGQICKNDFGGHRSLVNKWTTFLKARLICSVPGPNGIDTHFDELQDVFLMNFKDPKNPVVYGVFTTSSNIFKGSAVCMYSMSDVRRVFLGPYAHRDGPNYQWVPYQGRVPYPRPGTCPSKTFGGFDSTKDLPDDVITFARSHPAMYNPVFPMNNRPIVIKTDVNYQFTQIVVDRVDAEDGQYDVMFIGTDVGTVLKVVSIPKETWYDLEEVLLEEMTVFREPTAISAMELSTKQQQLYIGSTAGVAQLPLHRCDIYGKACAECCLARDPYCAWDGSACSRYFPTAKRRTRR
Experiment: ELISA on coated antigen (5 µg/ml), Fab in 2 fold dilutions from 1 µM, detection with HRP goat anti human H+L
Description: FIGS. 1A-B are graphs illustrating purification and ELISA binding evaluation of anti Sema3a isolated Fabs for estimated Kd values. The analyzed antibody was added in 2 fold dilution series starting at 1 μM to the antigen (Sema3A) coated wells (5 μg/ml). Bound antibodies were detected with horseradish peroxidase (HRP)-conjugated goat anti human H+L secondary antibodies. Fab 3H4 (FIG. 1A), L4B8 and L4E6 (FIG. 1B) are presented.

EC50 (read off the curve): ~100 nM
B1: Fab L4B8 (Fab, V domains shown)
VH: EVQLLESGGGLVQPGGSLRLPCAASGFTVGLYNINWVRQAPGKGLAWVSTISGSGLNTYYSDPVKGRFTISRDNSKNTLYLQMNSLRAEDTAVYYCARDEDTYAFNWGQGTLVTVSS
VL: DIVLTQSPGTLSLSPGERATLSCRASQSVSSSYLAWYQQKPGQAPRLLIYGASTRAPGIPDRFSGSGSGTDFTLTISRLEPEDFAVYYCHQRGSGDTFGPGTKVEIK
notes: C-terminal His tag on the Fd fragment

EC50 (read off the curve): ~200 nM
B2: Fab L4E6 (Fab, V domains shown)
VH: EVQLLESGGGLVQPGGSLRLSCAASGFTFSNFVMNWVRQAPGKGLEWVSRINTDGTSTNYADSVTGRFTISRDNSKNTLYLQMNSLRAEDTAVYYCARDYPLRRLMYYYYGMDVWGQGTLVTVSS
VL: DIVLTQSPGTLSLSPGERATLSCRASQTISSNLAWYQQKPGQAPRLLIYGASSRATGIPDRFSGSGSGTDFTLTISRLEPEDFAVYYCQQYSWSPRVYSFGQGTKLEIK
notes: as for B1
